This note sets out measurements from patent publication US20210000940A1.

Like-named read-outs stand apart in the source and are kept apart here.

Test [1] addresses Andes virus glycoprotein Gc, wild type (Andes orthohantavirus CHI-7913) (UniProt Q9E006).
Test [2] has the same target. The source holds these as a separate data set.

In the case of “Andes virus glycoprotein Gn, wild type (from UniProt Q9E006 19-651)”, the melting temperature (Tm) of temperature-induced Gn/Gc dissociation in test [1] is 37.7 °C; in test [2] it was 36.3 °C.
